Measurements from paper PMC10621992.

Biological target: TBK1 (UniProt Q9UHD2)
Test: co-immunoprecipitation, immunoblot
Conditions: reference: wild-type IRF3 + TBK1 + BLK; sites Y107

- binding against the reference: weaker
Substance: IRF3 (from UniProt Q14653) IRF3(Y107F) + TBK1 + BLK
